± gives the uncertainty stated by the source.

A short description of this data set: self-splicing fitness, log relative to wild type (ln ratio); higher = more splicing; Tetrahymena group I intron in knt gene, E. coli kanamycin selection, DiMSum; sequences stand for … in CUCUCU…GGAGGGAAAAGUUAUCAGGCAUGCACCUGGUAGCUAGUCUUUAAACCAAUAGAUUGCAUCGGUUUAAAAGGCAAGACCGUCAAAUUGCGGGAAAGGGGUCAACAGCCGUUCAGUACCAAGUCUCAGGGGAAACUUUGAGAUGGCCUUGCAAAGGGUAUGGUAAUAAGCUGACGGACAUGGUCCUAACCACGCAGCCAAGUCCUAAGUCAACAGAUCUUCUGUUGAUAUGGAUGCAGUUCACAGACUAAAUGUCGGUCGGGGAAGAUGUAUUCUUCUCAUAAGAUAUAGUCGGACCUCUCCUUAAUGGGAGCUAGCGGAUGAAGUGAUGCAACACUGGAGCCGCUGGGAACUAAUUUGUAUGCGAAAGUAUAUUGAUUAGUUUUGGAGUACUCGUGGUCG
Put shortly:
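Pooled colonies went to amplicon sequencing on an Illumina HiSeq 2500 after six replicate transformations. The plates were LB agar with 100 μg/mL carbenicillin, 50 μM IPTG and 0.2% rhamnose, with or without 25 μg/mL kanamycin, incubated overnight at 37°C or 30°C. The E. coli BL21(DE3) library had all eight P1ex-region intron nucleotides randomised, the intron placed in the knt kanamycin-resistance gene on pET-22b(+). DiMSum fitness is the error-weighted combination of replicate fold changes, kanamycin against none, normalised to wild type.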

Regarding ACAGAGCAAUAUUACGUGGG, the “self-splicing fitness (ln)” value reads like this: (30 °C) -2.64 ± 0.12; (37 °C) -2.4 ± 0.16.

With UGCAAGCAAUAUUACGCAUC, the “self-splicing fitness (ln)” value (30 °C) is -1.87 ± 0.45 and the “self-splicing fitness (ln)” value (37 °C) is -1.52 ± 0.45.

For the sequence AAUAAGCAAUAUUACGACUA, the “self-splicing fitness (ln)” value was -0.696 ± 0.12 (30 °C) and -0.486 ± 0.093 (37 °C).

On to CUAAAGCAAUAUUACGUGAU, for which the “self-splicing fitness (ln)” value is -1.35 ± 0.07 (30 °C) and -1.14 ± 0.11 (37 °C).

As to GGUAAGCAAUAUUACGCGAU, the “self-splicing fitness (ln)” value (30 °C) was -2.17 ± 0.3.

For CGGAAGCAAUAUUACGUCUG, the “self-splicing fitness (ln)” value was -3.74 ± 0.2 (30 °C) and -2.46 ± 0.19 (37 °C).

Regarding UUCCAGCAAUAUUACGAUUU, the “self-splicing fitness (ln)” value (30 °C) is -2.34 ± 0.088 and the “self-splicing fitness (ln)” value (37 °C) is -0.783 ± 0.1.

With CCCCAGCAAUAUUACGUGAC, the “self-splicing fitness (ln)” value reads like this: (30 °C) -2.7 ± 0.11; (37 °C) -3.24 ± 0.21.

On to GUACAGCAAUAUUACGACAC, for which the “self-splicing fitness (ln)” value was -0.333 ± 0.099 (30 °C) and 0.291 ± 0.11 (37 °C).

Consider GAGCAGCAAUAUUACGGGCU, for which the “self-splicing fitness (ln)” value was -3.92 ± 0.28 (30 °C) and -2.55 ± 0.34 (37 °C).

On to AGUGAGCAAUAUUACGCUAC, for which the “self-splicing fitness (ln)” value by setting is: (30 °C) -2.96 ± 0.16; (37 °C) -2.3 ± 0.23.

For the sequence UCUUAGCAAUAUUACGCCAU, the “self-splicing fitness (ln)” value was -2.69 ± 0.3 (30 °C) and -2.26 ± 0.42 (37 °C).

Regarding GGUAAGCAAUAUUACGUUGG, the “self-splicing fitness (ln)” value is, setting by setting: (30 °C) -2.59 ± 0.38; (37 °C) -1.99 ± 0.39.

In the case of CUCUAGCAAUAUUACGACGU, where the note is “37 °C”, the “self-splicing fitness (ln)” value was -3.03 ± 0.22.

As for AUACAGCAAUAUUACGUCGA, the “self-splicing fitness (ln)” value by setting is: (30 °C) -1.77 ± 0.13; (37 °C) -1.23 ± 0.12.

For the sequence AUAGAGCAAUAUUACGGUCG, the “self-splicing fitness (ln)” value runs as follows: (30 °C) -1.65 ± 0.18; (37 °C) -1.12 ± 0.23.

Consider GACUAGCAAUAUUACGCAGC, for which the “self-splicing fitness (ln)” value is, setting by setting: (30 °C) -3.5 ± 0.23; (37 °C) -2.2 ± 0.31.

For AACCAGCAAUAUUACGGCGA, the “self-splicing fitness (ln)” value (30 °C) is -0.304 ± 0.075 and the “self-splicing fitness (ln)” value (37 °C) amounted to 0.19 ± 0.11.

As to GAUUAGCAAUAUUACGGCCG, the “self-splicing fitness (ln)” value is, setting by setting: (30 °C) -1.01 ± 0.13; (37 °C) -1.01 ± 0.19.

Turning to UUUAAGCAAUAUUACGUGUG, the “self-splicing fitness (ln)” value was -1.24 ± 0.096 (30 °C) and -0.602 ± 0.093 (37 °C).

In the case of CAACAGCAAUAUUACGGCCU, the “self-splicing fitness (ln)” value reads like this: (30 °C) -3.63 ± 0.16; (37 °C) -1.3 ± 0.12.

In the case of CAUGAGCAAUAUUACGCUAG, the “self-splicing fitness (ln)” value is -3.07 ± 0.21 (30 °C) and -2.82 ± 0.23 (37 °C).

Regarding UACAAGCAAUAUUACGGUCG, the “self-splicing fitness (ln)” value (30 °C) was -0.0495 ± 0.068 and the “self-splicing fitness (ln)” value (37 °C) is -0.0985 ± 0.1.

Take UAAGAGCAAUAUUACGCUCA: the “self-splicing fitness (ln)” value is, setting by setting: (30 °C) -2.37 ± 0.23; (37 °C) -1.54 ± 0.18.

For GCUCAGCAAUAUUACGGGGC, the “self-splicing fitness (ln)” value reads like this: (30 °C) -3.56 ± 0.2; (37 °C) -1.98 ± 0.2.

Take AAUGAGCAAUAUUACGAAUG: the “self-splicing fitness (ln)” value (30 °C) is -3.34 ± 0.36.

Regarding UUGCAGCAAUAUUACGCCUA, the “self-splicing fitness (ln)” value reads like this: (30 °C) -0.384 ± 0.084; (37 °C) 0.346 ± 0.11.

For CUAGAGCAAUAUUACGAAGC, the “self-splicing fitness (ln)” value was -0.938 ± 0.42 (30 °C) and -1.45 ± 0.43 (37 °C).

Take ACAUAGCAAUAUUACGGAUA: the “self-splicing fitness (ln)” value reads like this: (30 °C) -1.75 ± 0.17; (37 °C) -2.34 ± 0.21.

For the sequence UCAUAGCAAUAUUACGGGGA, the “self-splicing fitness (ln)” value (30 °C) is -1.54 ± 0.1 and the “self-splicing fitness (ln)” value (37 °C) is -0.546 ± 0.12.

As to UCUCAGCAAUAUUACGAAGU, the “self-splicing fitness (ln)” value was -2.33 ± 0.26 (30 °C) and -0.109 ± 0.16 (37 °C).

For GGAUAGCAAUAUUACGUUCA, the “self-splicing fitness (ln)” value reads like this: (30 °C) -0.502 ± 0.1; (37 °C) -0.00255 ± 0.15.

In the case of UCCAAGCAAUAUUACGCAUU, the “self-splicing fitness (ln)” value is -4.05 ± 0.21 (30 °C) and -2.35 ± 0.23 (37 °C).

ACUGAGCAAUAUUACGAAUG: the “self-splicing fitness (ln)” value (30 °C) was -3.69 ± 0.4 and the “self-splicing fitness (ln)” value (37 °C) is -1.89 ± 0.22.

UAAUAGCAAUAUUACGUGCU: the “self-splicing fitness (ln)” value is -1.98 ± 0.1 (30 °C) and -0.994 ± 0.1 (37 °C).

Take GAUAAGCAAUAUUACGUCGA: the “self-splicing fitness (ln)” value by setting is: (30 °C) -1.54 ± 0.14; (37 °C) -0.37 ± 0.13.

For GAAUAGCAAUAUUACGCGGC, the “self-splicing fitness (ln)” value is, setting by setting: (30 °C) -1.42 ± 0.19; (37 °C) -2.38 ± 0.3.

For CUAUAGCAAUAUUACGUAUG, the “self-splicing fitness (ln)” value reads like this: (30 °C) -1.52 ± 0.085; (37 °C) -0.647 ± 0.099.

The values above are taken from the supplement of paper PMC7877785.
